Each block holds one molecule with its values, some of them ahead of it.
Biological target: FAM19A5 protein (Homo sapiens, UniProt Q7Z5A7)
Experiment: Co-immunoprecipitation of FLAG-tagged LRRC4 family constructs with recombinant FAM19A5 in HEK293 cells
Assay type: binding
Conditions: HEK293 cells expressing FLAG-tagged construct, recombinant FAM19A5 protein (1 μM) 30 minutes; anti-FLAG immunoprecipitation
Experimental: To better understand the interaction between FAM19A5 and members of the LRRC4 protein family, HEK293 cells were modified to express a FLAG-tagged member of the LRRC4 protein family, i.e., LRRC4C protein, LRRC4 protein, or LRRC4B protein. Then, the HEK293 cells or primary cortical neurons were treated with recombinant FAM19A5 protein (1 μM) for 30 minutes, and the binding between FAM19A5 protein and the different members of the LRRC4 protein family was assessed using both co-immunoprecipitation and immunofluorescence assays.
For the co-immunoprecipitation assay, cell lysates from the different FAM19A5-treated HEK293 cells were collected and immunoprecipitated with an anti-FLAG antibody, anti-FAM19A5 (1-65) antibody, or a human IgG antibody (control). Immunoprecipitated proteins were immunoblotted with anti-FLAG and anti-FAM19A5 (3-2) antibodies. For the immunofluorescence assay, the HEK293 cells treated with the recombinant FAM19A5 protein were immunostained with anti-FAM19A5 (3-2) (to detect FAM19A5 protein expression) and anti-FLAG antibodies (to detect member of the LRRC4 protein family). The primary cortical neurons treated with the recombinant FAM19A5 protein were immunostained with anti-FAM19A5 (3-2) and anti-LRRC4B antibodies. The nuclei were stained with Hoechst33342 (blue).
To determine the specific motif or domain of the LRRC4B protein that is responsible for the binding to a FAM19A5 protein, various FLAG-tagged LRRC4B deletion constructs were generated (see Table 6 below). HEK293 cells were transfected with the different deletion constructs and then treated with recombinant FAM19A5 protein as described in Example 1. Then, the cell lysates from the different HEK293 cells were immunoprecipitated with the anti-FLAG antibody. The immunoprecipitated proteins were immunoblotted with anti-FLAG and anti-FAM19A5 (3-2) antibodies.
As described in Example 2, all members of the LRRC4 protein family were capable of binding to FAM19A5 protein to varying degrees. Therefore, to compare the bindings domains, the amino acid sequences of the LRRC4B, LRRC4, and LRRC4C proteins were aligned. […] Therefore, to assess whether the corresponding positions of LRRC4 and LRRC4C were important in the binding of these proteins to FAM19A5 protein, cDNAs encoding either (i) LRRC4C protein fragment (amino acids 354-527 of SEQ ID NO: 3; SEQ ID NO: 66) or (ii) LRRC4 protein fragment (amino acids 353-527 of SEQ ID NO: 1; SEQ ID NO: 67) were constructed (see Table 7). HEK293 cells were transfected to express either of the protein fragments and then treated with recombinant FAM19A5 protein as described in Example 1. Then, the cell lysates from the different HEK293 cells were immunoprecipitated with the anti-FLAG antibody. The immunoprecipitated proteins were immunoblotted with anti-FLAG and anti-FAM19A5 (3-2) antibodies.

Sequence of FAM19A5 protein (Q7Z5A7 44-132): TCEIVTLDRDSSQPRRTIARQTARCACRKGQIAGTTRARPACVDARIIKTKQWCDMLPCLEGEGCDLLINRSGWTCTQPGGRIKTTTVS

- binding to FAM19A5 protein (co-immunoprecipitation): able to bind to the FAM19A5 protein
B2: LRRC4B (230-713): FLAG-tagged LRRC4B deletion construct, amino acids 230-713 of SEQ ID NO: 2 (SEQ ID NO: 54) (protein)
chain: RLEELELSGNRLDLIRPGSFQGLTSLRKLWLMHAQVATIERNAFDDLKSLEELNLSHNNLMSLPHDLFTPLHRLERVHLNHNPWHCNCDVLWLSWWLKETVPSNTTCCARCHAPAGLKGRYIGELDQSHFTCYAPVIVEPPTDLNVTEGMAAELKCRTGTSMTSVNWLTPNGTLMTHGSYRVRISVLHDGTLNFTNVTVQDTGQYTCMVTNSAGNTTASATLNVSAVDPVAAGGTGSGGGGPGGSGGVGGGSGGYTYFTTVTVETLETQPGEEALQPRGTEKEPPGPTTDGVWGGGRPGDAAGPASSSTTAPAPRSSRPTEKAFTVPITDVTENALKDLDDVMKTTKIIIGCFVAITFMAAVMLVAFYKLRKQHQLHKHHGPTRTVEIINVEDELPAASAVSVAAAAAVASGGGVGGDSHLALPALERDHLNHHHYVAAAFKAHYSSNPSGGGCGGKGPPGLNSIHEPLLFKSGSKENVQETQI
modifications: FLAG tag

- binding to FAM19A5 protein (co-immunoprecipitation): able to bind to the FAM19A5 protein
B3: LRRC4B (364-713): FLAG-tagged LRRC4B deletion construct, amino acids 364-713 of SEQ ID NO: 2 (SEQ ID NO: 55) (protein)
chain: PVIVEPPTDLNVTEGMAAELKCRTGTSMTSVNWLTPNGTLMTHGSYRVRISVLHDGTLNFTNVTVQDTGQYTCMVTNSAGNTTASATLNVSAVDPVAAGGTGSGGGGPGGSGGVGGGSGGYTYFTTVTVETLETQPGEEALQPRGTEKEPPGPTTDGVWGGGRPGDAAGPASSSTTAPAPRSSRPTEKAFTVPITDVTENALKDLDDVMKTTKIIIGCFVAITFMAAVMLVAFYKLRKQHQLHKHHGPTRTVEIINVEDELPAASAVSVAAAAAVASGGGVGGDSHLALPALERDHLNHHHYVAAAFKAHYSSNPSGGGCGGKGPPGLNSIHEPLLFKSGSKENVQETQI
modifications: FLAG tag

The remaining lines, values behind:

B1: LRRC4B (36-576): full-length ectodomain of LRRC4B protein, amino acids 36-576 of SEQ ID NO: 2 (SEQ ID NO: 5) (protein)
chain: AGGGGVAVTSAAGGGSPPATSCPVACSCSNQASRVICTRRDLAEVPASIPVNTRYLNLQENGIQVIRTDTFKHLRHLEILQLSKNLVRKIEVGAFNGLPSLNTLELFDNRLTTVPTQAFEYLSKLRELWLRNNPIESIPSYAFNRVPSLRRLDLGELKRLEYISEAAFEGLVNLRYLNLGMCNLKDIPNLTALVRLEELELSGNRLDLIRPGSFQGLTSLRKLWLMHAQVATIERNAFDDLKSLEELNLSHNNLMSLPHDLFTPLHRLERVHLNHNPWHCNCDVLWLSWWLKETVPSNTTCCARCHAPAGLKGRYIGELDQSHFTCYAPVIVEPPTDLNVTEGMAAELKCRTGTSMTSVNWLTPNGTLMTHGSYRVRISVLHDGTLNFTNVTVQDTGQYTCMVTNSAGNTTASATLNVSAVDPVAAGGTGSGGGGPGGSGGVGGGSGGYTYFTTVTVETLETQPGEEALQPRGTEKEPPGPTTDGVWGGGRPGDAAGPASSSTTAPAPRSSRPTEKAFTVPITDVTENALKDLDDVMKTTK
- binding to FAM19A5 protein (co-immunoprecipitation): able to bind to the FAM19A5 protein

B4: LRRC4B (36-713): FLAG-tagged LRRC4B deletion construct, amino acids 36-713 of SEQ ID NO: 2 (SEQ ID NO: 52) (protein)
chain: AGGGGVAVTSAAGGGSPPATSCPVACSCSNQASRVICTRRDLAEVPASIPVNTRYLNLQENGIQVIRTDTFKHLRHLEILQLSKNLVRKIEVGAFNGLPSLNTLELFDNRLTTVPTQAFEYLSKLRELWLRNNPIESIPSYAFNRVPSLRRLDLGELKRLEYISEAAFEGLVNLRYLNLGMCNLKDIPNLTALVRLEELELSGNRLDLIRPGSFQGLTSLRKLWLMHAQVATIERNAFDDLKSLEELNLSHNNLMSLPHDLFTPLHRLERVHLNHNPWHCNCDVLWLSWWLKETVPSNTTCCARCHAPAGLKGRYIGELDQSHFTCYAPVIVEPPTDLNVTEGMAAELKCRTGTSMTSVNWLTPNGTLMTHGSYRVRISVLHDGTLNFTNVTVQDTGQYTCMVTNSAGNTTASATLNVSAVDPVAAGGTGSGGGGPGGSGGVGGGSGGYTYFTTVTVETLETQPGEEALQPRGTEKEPPGPTTDGVWGGGRPGDAAGPASSSTTAPAPRSSRPTEKAFTVPITDVTENALKDLDDVMKTTKIIIGCFVAITFMAAVMLVAFYKLRKQHQLHKHHGPTRTVEIINVEDELPAASAVSVAAAAAVASGGGVGGDSHLALPALERDHLNHHHYVAAAFKAHYSSNPSGGGCGGKGPPGLNSIHEPLLFKSGSKENVQETQI
modifications: FLAG tag
- binding to FAM19A5 protein (co-immunoprecipitation): able to bind to the FAM19A5 protein

B5: LRRC4B (157-713): FLAG-tagged LRRC4B deletion construct, amino acids 157-713 of SEQ ID NO: 2 (SEQ ID NO: 53) (protein)
chain: LSKLRELWLRNNPIESIPSYAFNRVPSLRRLDLGELKRLEYISEAAFEGLVNLRYLNLGMCNLKDIPNLTALVRLEELELSGNRLDLIRPGSFQGLTSLRKLWLMHAQVATIERNAFDDLKSLEELNLSHNNLMSLPHDLFTPLHRLERVHLNHNPWHCNCDVLWLSWWLKETVPSNTTCCARCHAPAGLKGRYIGELDQSHFTCYAPVIVEPPTDLNVTEGMAAELKCRTGTSMTSVNWLTPNGTLMTHGSYRVRISVLHDGTLNFTNVTVQDTGQYTCMVTNSAGNTTASATLNVSAVDPVAAGGTGSGGGGPGGSGGVGGGSGGYTYFTTVTVETLETQPGEEALQPRGTEKEPPGPTTDGVWGGGRPGDAAGPASSSTTAPAPRSSRPTEKAFTVPITDVTENALKDLDDVMKTTKIIIGCFVAITFMAAVMLVAFYKLRKQHQLHKHHGPTRTVEIINVEDELPAASAVSVAAAAAVASGGGVGGDSHLALPALERDHLNHHHYVAAAFKAHYSSNPSGGGCGGKGPPGLNSIHEPLLFKSGSKENVQETQI
modifications: FLAG tag
- binding to FAM19A5 protein (co-immunoprecipitation): able to bind to the FAM19A5 protein

B6: LRRC4B (364-576): LRRC4B deletion construct, amino acids 364-576 of SEQ ID NO: 2 (SEQ ID NO: 61) (protein)
chain: PVIVEPPTDLNVTEGMAAELKCRTGTSMTSVNWLTPNGTLMTHGSYRVRISVLHDGTLNFTNVTVQDTGQYTCMVTNSAGNTTASATLNVSAVDPVAAGGTGSGGGGPGGSGGVGGGSGGYTYFTTVTVETLETQPGEEALQPRGTEKEPPGPTTDGVWGGGRPGDAAGPASSSTTAPAPRSSRPTEKAFTVPITDVTENALKDLDDVMKTTK
- binding to FAM19A5 protein (co-immunoprecipitation): able to bind to the FAM19A5 protein

B7: LRRC4B (453-713): FLAG-tagged LRRC4B deletion construct, amino acids 453-713 of SEQ ID NO: 2 (SEQ ID NO: 56) (protein)
chain: VSAVDPVAAGGTGSGGGGPGGSGGVGGGSGGYTYFTTVTVETLETQPGEEALQPRGTEKEPPGPTTDGVWGGGRPGDAAGPASSSTTAPAPRSSRPTEKAFTVPITDVTENALKDLDDVMKTTKIIIGCFVAITFMAAVMLVAFYKLRKQHQLHKHHGPTRTVEIINVEDELPAASAVSVAAAAAVASGGGVGGDSHLALPALERDHLNHHHYVAAAFKAHYSSNPSGGGCGGKGPPGLNSIHEPLLFKSGSKENVQETQI
modifications: FLAG tag
- binding to FAM19A5 protein (co-immunoprecipitation): able to bind to the FAM19A5 protein
